# Assay results: US11452764B2, “Inhibiting FAK-AKT interaction to inhibit metastasis” (Board of Trustees of Michigan State University, priority 2017, dated 2022)
# B1: GFP-FAK-NT1: GFP fusion of FAK-NT1 (residues 1-126) expressed transiently or inducibly in cells (protein)
# chain: MAAAYLDPNLNHTPNSSTKTHLGTGMERSPGAMERVLKVFHYFESNSEPTTWASIIRHGDATDVRGIIQKIVDSHKVKNVACYGFRLSHLRSEEVHWLHVDMGVSSVREKYELAHPPEEWKYELRI
# modifications: left off: large carriers
# notes: GFP fusion of FAK-NT1 (residues 1-126) expressed transiently or inducibly in cells
# B2: NT1: recombinant GST-FAK truncated peptide, FAK residues 1-126 (SEQ ID NO:3) (protein)
# chain: MAAAYLDPNLNHTPNSSTKTHLGTGMERSPGAMERVLKVFHYFESNSEPTTWASIIRHGDATDVRGIIQKIVDSHKVKNVACYGFRLSHLRSEEVHWLHVDMGVSSVREKYELAHPPEEWKYELRI
# modifications: left off: large carriers
# B3: HA-conjugated wild type FAK: HA-tagged wild type FAK expressed in Caco-2 cells (protein)
# chain: MAAAYLDPNLNHTPNSSTKTHLGTGMERSPGAMERVLKVFHYFESNSEPTTWASIIRHGDATDVRGIIQKIVDSHKVKHVACYGFRLSHLRSEEVHWLHVDMGVSSVREKYELAHPPEEWKYELRIRYLPKGFLNQFTEDKPTLNFFYQQVKSDYMLEIADQVDQEIALKLGCLEIRRSYWEMRGNALEKKSNYEVLEKDVGLKRFFPKSLLDSVKAKTLRKLIQQTFRQFANLNREESILKFFEILSPVYRFDKECFKCALGSSWIISVELAIGPEEGISYLTDKGCNPTHLADFTQVQTIQYSNSEDKDRKGMLQLKIAGAPEPLTVTAPSLTIAENMADLIDGYCRLVNGTSQSFIIRPQKEGERALPSIPKLANSEKQGMRTHAVSVSETDDYAEIIDEEDTYTMPSTRDYEIQRERIELGRCIGEGQFGDVHQGIYMSPENPALAVAIKTCKNCTSDSVREKFLQEALTMRQFDHPHIVKLIGVITENPVWIIMELCTLGELRSFLQVRKYSLDLASLILYAYQLSTALAYLESKRFVHRDIAARNVLVSSNDCVKLGDFGLSRYMEDSTYYKASKGKLPIKWMAPESINFRRFTSASDVWMFGVCMWEILMHGVKPFQGVKNNDVIGRIENGERLPMPPNCPPTLYSLMTKCWAYDPSRRPRFTELKAQLSTILEEEKAQQEERMRMESRRQATVSWDSGGSDEAPPKPSRPGYPSPRSSEGFYPSPQHMVQTNHYQVSGYPGSHGITAMAGSIYPGQASLLDQTDSWNHRPQEIAMWQPNVEDSTVLDLRGIGQVLPTHLMEERLIRQQQEMEEDQRWLEKEERFLKPDVRLSRGSIDREDGSLQGPIGNQHIYQPVGKPDPAAPPKKPPRPGAPGHLGSLASLSSPADSYNEGVKLQPQEISPPPTANLDRSNDKVYENVTGLVKAVIEMSSKIQPAPPEEYVPMVKEVGLALRTLLATVDETIPLLPASTHREIEMAQKLLNSDLGELINKMKLAQQYVMTSLQQEYKKQMLTAAHALAVDAKNLLDVIDQARLKMLGQTRPH
# modifications: left off: small tags and cut ends
# notes: HA-tagged wild type FAK expressed in Caco-2 cells
# B4: HA-conjugated FRNK: HA-tagged FAK-related non-kinase, 67 kDa segment from the COOH-terminal region of FAK (protein)
# chain: MESRRQATVSWDSGGSDEAPPKPSRPGYPSPRSSEGFYPSPQHMVQTNHYQVSGYPGSHGITAMAGSIYPGQASLLDQTDSWNHRPQEIAMWQPNVEDSTVLDLRGIGQVLPTHLMEERLIRQQQEMEEDQRWLEKEERFLKPDVRLSRGSIDREDGSLQGPIGNQHIYQPVGKPDPAAPPKKPPRPGAPGHLGSLASLSSPADSYNEGVKLQPQEISPPPTANLDRSNDKVYENVTGLVKAVIEMSSKIQPAPPEEYVPMVKEVGLALRTLLATVDETIPLLPASTHREIEMAQKLLNSDLGELINKMKLAQQYVMTSLQQEYKKQMLTAAHALAVDAKNLLDVIDQARLKMLGQTRPH
# modifications: left off: small tags and cut ends
# notes: HA-tagged FAK-related non-kinase, 67 kDa segment from the COOH-terminal region of FAK
# B5: NT1-2: recombinant GST-FAK truncated peptide, residues 61-126 (protein, listed as Homo sapiens)
# chain: ATDVRGIIQKIVDSHKVKNVACYGFRLSHLRSEEVHWLHVDMGVSSVREKYELAHPPEEWKYELRI
# modifications: GST tag
# Experiments:
# Caco-2 cells = test: Pressure-induced adhesion of Caco-2 cells transiently expressing GFP-FAK-NT1; type: cell-based, human; conditions: Caco-2, transient expression, vs GFP control
# Procedure: Caco-2 cells were plated on p100 dishes at 30-35% confluence one day prior to transfection. The constructed or empty plasmids were transfected into Caco-2 cells at final concentrations of 2 μg/ml plasmid and 5 μg/ml Lipofectamine 2000. Five hours after transfection, the medium was replaced with 15 ml pre-warmed Caco-2 media without antibiotics. Forty eight hours after DNA transfection, the cells were trypsinized for adhesion or pull-down experiments.
# Experimental pressure conditions were controlled using an airtight box with inlet and outlet valves, thumb screws, a pressure gauge and an O-ring for an airtight (11, 25). The box was prewarmed to 37° C. for 1 hour to […] minimize temperature fluctuations experienced by the cells. […]
# 100,000 Caco-2 or CT-26 cells were seeded to collagen I coated 6-well plates under ambient or increased pressure conditions for 30 minutes. […] The adherent cells were counted microscopically in at least 20 random high power fields per well under a fluorescent microscope.
# To test whether this interaction of NT1 with Akt1 might have biological effects, we evaluated the effect of overexpressing NT1 in Caco-2 cells on the adhesive response to increased extracellular pressure, which requires FAK-Akt1 interaction. […]
# CT-26 cells = test: Pressure-induced adhesion of CT-26 cells inducibly expressing GFP-FAK-NT1; type: cell-based, murine
# Procedure: A stable CT-26 cell line was generated per ARIAD-ARGENT protocols and GFP-FAK-NT1 expression was induced using 50 nM of the provided non-immunosuppressive rapalog, AP21967 with an equal volume of ethanol used as the control vehicle. Forty eight hours after induction, the cells were trypsinized for adhesion experiments.
# Experimental pressure conditions were controlled using an airtight box with inlet and outlet valves, thumb screws, a pressure gauge and an O-ring for an airtight (11, 25). The box was prewarmed to 37° C. for 1 hour to […] minimize temperature fluctuations experienced by the cells. The gas used for pressurization was a filtered 5% CO2/95% air mixture consistent with the atmosphere in which the cells were routinely cultured. The temperature was maintained within ±2° C. and the pressure within ±1.5 mmHg.
# 100,000 Caco-2 or CT-26 cells were seeded to collagen I coated 6-well plates under ambient or increased pressure conditions for 30 minutes. Non-adherent cells were washed away, and the remainder fixed with 0.01 M NaIO4, 0.75 M lysine, 0.0375 M sodium phosphate buffer, pH 7.4, and 2% paraformaldehyde on ice for 1 hour. The adherent cells were counted microscopically in at least 20 random high power fields per well under a fluorescent microscope. […]
# Akt1 [1] = biological target: T1, Akt1 (Homo sapiens, UniProt P31749); test: GST-FAK truncation/mutant fusion protein pull-down of Akt1 (cell lysate or purified Akt1); type: binding; set-up: endogenous in cells; host or cells: Caco-2 or SW620 cell lysate; conditions: for Akt1 pulled down by GST-FAK truncations: GST pull-down, N=4, p<0.05
# Procedure: (§1) Glutathione-Sepharose 4B beads (15 μl) were washed twice in ice-cold PBS and resuspended in 400 μl PBS. Bacterial lysate containing GST-Akt1, GST-FAK-NT1 (truncations), or GST proteins (gift of Dr. J. Chen) were then added in excess and incubated with the beads for 1 h. Glutathione-Sepharose 4B beads coupled to GST-Akt1, GST-FAK (truncations), or GST were then washed twice with PBS by centrifuge for 5 min at 500 g and incubated with nontransfected or transfected Caco-2 cell lysates (600-800 μg protein) overnight at 4° C. Transfected Caco-2 cells received plasmids encoding HA-WT-FAK or HA-FRNK. Nontransfected and transfected Caco-2 cell lysates were prepared in cell lysis buffer lysis buffer [50 mM Tris (pH 7.4), 150 mM NaCl, 1% Triton X-100, 1% sodium deoxycholate, 0.1% SDS, 1 mM EDTA, 1 mM phenylmethylsulfonyl fluoride, 1 mM Na3VO4, 50 mM NaF, 10 mM sodium pyrophosphate, […] (pH 7.4)]. Following incubation, beads were washed twice with lysis buffer without SDS and protease inhibitors. Proteins were eluted with Laemmli SDS sample dilution buffer, separated by 10% SDS-PAGE, and immunoblotted with GST, Akt1 (Cell Signaling Technology, Danvers, Mass.), or HA monoclonal antibodies (Covance, Chantilly, Va.).
# In some cases Glutathione-Sepharose-4B beads (30 μl) (GE Healthcare Life Science, Pittsburgh, Pa.) were conjugated with GST (expressed protein from a 250 μl bacterial pellet per 30 μl of beads) or recombinant GST-tagged (expressed protein from a 3 ml bacterial pellet per 30 μl of beads) (24) and incubated with lysate from 2×10^7 Caco-2 or SW620 cells (1500 μg protein) or purified Akt1 (0.35 μg) (Origene, Rockville, Md.) overnight at 4° C. […]
# Protein concentrations were determined by bicinchoninic acid (BCA) protein assay (Pierce, Rockford, Ill.). […] Membranes were visualized by the infrared fluorescent IRDye system (LI-COR Biosciences, Lincoln, Nebr.) and analyzed on an Odyssey scanner (LI-COR Biosciences, Lincoln, Nebr.) within the linear range. […]
# Akt1 [2] = biological target: T1, Akt1; test: GST-Akt1 pull-down of HA-tagged wild type FAK or FRNK from transfected Caco-2 cell lysate; type: binding; set-up: made in house; host or cells: bacteria (pGEX-4T1; E. coli BL21 is printed only for the GST-FAK fusions); conditions: lysate of transiently transfected Caco-2 cells; 1 of 2 similar experiments
# Procedure: as §1, with “Va.). […]” for “Va.).”
# T1 sequence (P31749 whole entry, the tested form may be a part): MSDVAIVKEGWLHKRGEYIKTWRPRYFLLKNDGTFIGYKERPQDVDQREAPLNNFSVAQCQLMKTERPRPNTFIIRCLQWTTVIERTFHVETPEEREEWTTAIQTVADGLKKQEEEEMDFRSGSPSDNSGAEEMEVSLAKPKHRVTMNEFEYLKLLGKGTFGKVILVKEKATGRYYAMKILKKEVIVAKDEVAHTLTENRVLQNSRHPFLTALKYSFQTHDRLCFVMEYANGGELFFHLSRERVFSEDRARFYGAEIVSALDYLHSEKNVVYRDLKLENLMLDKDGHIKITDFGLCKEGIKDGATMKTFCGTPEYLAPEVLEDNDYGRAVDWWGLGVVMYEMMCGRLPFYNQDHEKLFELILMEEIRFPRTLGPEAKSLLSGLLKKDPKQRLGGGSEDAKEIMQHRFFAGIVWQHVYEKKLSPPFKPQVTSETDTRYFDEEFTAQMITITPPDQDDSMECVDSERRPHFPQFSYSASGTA
molecule,measurement,setting,value
B1,Pressure-induced adhesion,Caco-2 cells; 15 mmHg increased pressure 30 minutes,inhibited
same,Basal levels of adhesion,Caco-2 cells; ambient pressure,reduced
same,Stimulation of cell adhesion by increased pressure,"CT-26 cells; CT26, expression induced 48 hours before, 15 mmHg 30 minutes, vs GFP control",prevented the stimulation of cell adhesion by increased pressure
same,Basal levels of adhesion,"CT-26 cells; CT26, inducible expression",reduced
B2,Akt1 pulled down by GST-FAK truncations,Akt1 [1],significantly more Akt1
same,Akt1 pulled down by GST-FAK-NT1-conjugated Sepharose beads,Akt1 [1]; overnight incubation with either cell lysate or purified Akt1,pulled down Akt1
B3,HA-tagged protein in eluate after passage over GST-Akt1 beads (Western blot for HA),Akt1 [2],enriched
B4,HA-tagged protein in eluate after passage over GST-Akt1 beads (Western blot for HA),Akt1 [2],markedly reduced
B5,Akt1 pulled down by GST-FAK truncations,Akt1 [1],significantly more Akt1
